Assay results published in publication PMC12288466, “EzrA promotes Z-ring formation through interaction of its QNR motif with FtsA” (Journal of Bacteriology, 2025).

Experiments:
[1] = target: FtsA of B. subtilis, bacterial two-hybrid fusion (UniProt P28264); test: bacterial two-hybrid, β-galactosidase activity; conditions: cultured at 30°C for 16 h; parent: est. 270; read off a plot
[2] = target: FtsA of E. faecalis, bacterial two-hybrid fusion (UniProt O07111); test: bacterial two-hybrid, β-galactosidase activity; conditions: cultured at 30°C for 16 h; parent: est. 42; read off a plot
[3] = target: FtsA of S. pneumoniae, bacterial two-hybrid fusion (UniProt A0A0H2ZPT5); test: bacterial two-hybrid, β-galactosidase activity; conditions: cultured at 30°C for 16 h; parent: est. 110; read off a plot
[4] = target: FtsA of S. suis, bacterial two-hybrid fusion (UniProt A0A0H3MTL7); test: bacterial two-hybrid, β-galactosidase activity; conditions: cultured at 30°C for 16 h; parent: est. 300; read off a plot
his-tagged FtsA protein [5] = target: T1, his-tagged FtsA protein (Streptococcus suis, UniProt A0A0H3MTL7 1-459); test: SPR; kinetic fit
T1 chain: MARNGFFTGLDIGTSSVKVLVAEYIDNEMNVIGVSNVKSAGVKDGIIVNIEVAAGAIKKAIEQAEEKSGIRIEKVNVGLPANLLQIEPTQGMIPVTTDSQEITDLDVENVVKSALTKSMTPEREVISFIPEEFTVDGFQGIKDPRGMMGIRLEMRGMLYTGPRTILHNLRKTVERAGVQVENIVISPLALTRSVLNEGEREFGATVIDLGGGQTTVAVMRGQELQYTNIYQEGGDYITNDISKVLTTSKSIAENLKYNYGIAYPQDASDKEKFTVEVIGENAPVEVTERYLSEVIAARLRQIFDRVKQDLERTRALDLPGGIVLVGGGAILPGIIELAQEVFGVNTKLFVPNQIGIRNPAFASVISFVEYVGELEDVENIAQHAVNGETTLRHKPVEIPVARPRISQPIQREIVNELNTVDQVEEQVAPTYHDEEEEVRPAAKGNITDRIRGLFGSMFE

his-tagged FtsA protein [6] = target: T2, his-tagged FtsA protein (Streptococcus suis, UniProt A0A0H3MTL7 1-459); test: SPR; Biacore T200; FtsA covalently immobilised on a CM5 chip (700 RU); EzrA_(cyto) or its variant injected at 200 to 3.125 µM in twofold dilutions, 30 µL/min, 25°C; equilibrium response fitted to a 1:1 binding model; conditions: both partners purified
T2 construct: FtsA of Streptococcus suis, locus SSU05_0480; It was purified 'in the same way but without the SUMO cleavage step'; source: E. coli BL21 (DE3), pET28a, purified (Ni-NTA)
T2 sequence (looked up): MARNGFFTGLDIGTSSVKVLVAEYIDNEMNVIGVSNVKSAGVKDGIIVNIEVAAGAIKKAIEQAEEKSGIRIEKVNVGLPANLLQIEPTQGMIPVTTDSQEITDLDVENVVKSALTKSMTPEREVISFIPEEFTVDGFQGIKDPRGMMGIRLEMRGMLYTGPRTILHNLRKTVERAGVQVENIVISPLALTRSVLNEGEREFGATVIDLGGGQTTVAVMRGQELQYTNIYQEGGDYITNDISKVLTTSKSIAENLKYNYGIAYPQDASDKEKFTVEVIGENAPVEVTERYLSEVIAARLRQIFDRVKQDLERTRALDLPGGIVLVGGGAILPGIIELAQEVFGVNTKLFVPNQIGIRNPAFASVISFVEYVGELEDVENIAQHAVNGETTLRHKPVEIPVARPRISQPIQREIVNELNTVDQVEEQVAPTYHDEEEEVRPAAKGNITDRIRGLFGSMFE

his-tagged FtsA protein [7] = target: T1, his-tagged FtsA protein; test: SPR; equilibrium (steady-state) fit

Chain of FtsA of E. faecalis, bacterial two-hybrid fusion (O07111 whole entry, the tested form may be a part): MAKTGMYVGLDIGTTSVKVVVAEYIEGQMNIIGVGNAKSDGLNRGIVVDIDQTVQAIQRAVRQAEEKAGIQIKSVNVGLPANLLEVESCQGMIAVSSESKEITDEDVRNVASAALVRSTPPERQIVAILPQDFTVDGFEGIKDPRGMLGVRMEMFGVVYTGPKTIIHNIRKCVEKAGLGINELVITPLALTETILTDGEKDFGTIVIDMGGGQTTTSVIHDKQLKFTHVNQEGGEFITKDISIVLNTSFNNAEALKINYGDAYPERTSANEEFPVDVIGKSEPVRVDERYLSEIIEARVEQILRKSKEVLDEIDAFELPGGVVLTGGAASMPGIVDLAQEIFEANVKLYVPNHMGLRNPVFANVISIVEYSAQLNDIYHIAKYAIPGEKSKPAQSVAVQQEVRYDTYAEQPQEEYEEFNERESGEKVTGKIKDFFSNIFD
Chain of FtsA of B. subtilis, bacterial two-hybrid fusion (P28264 whole entry, the tested form may be a part): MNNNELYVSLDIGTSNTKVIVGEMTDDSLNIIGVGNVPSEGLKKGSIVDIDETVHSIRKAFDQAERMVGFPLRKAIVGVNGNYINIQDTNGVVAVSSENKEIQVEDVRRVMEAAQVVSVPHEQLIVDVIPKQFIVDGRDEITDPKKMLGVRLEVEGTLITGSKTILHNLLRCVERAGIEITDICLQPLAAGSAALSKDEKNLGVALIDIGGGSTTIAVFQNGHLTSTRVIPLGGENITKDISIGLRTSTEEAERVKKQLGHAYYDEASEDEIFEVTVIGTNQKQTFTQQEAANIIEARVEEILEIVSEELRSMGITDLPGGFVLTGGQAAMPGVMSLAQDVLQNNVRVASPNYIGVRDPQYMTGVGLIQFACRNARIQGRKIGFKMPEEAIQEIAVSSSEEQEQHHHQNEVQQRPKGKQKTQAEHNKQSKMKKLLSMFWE
Chain of FtsA of S. pneumoniae, bacterial two-hybrid fusion (A0A0H2ZPT5 whole entry, the tested form may be a part): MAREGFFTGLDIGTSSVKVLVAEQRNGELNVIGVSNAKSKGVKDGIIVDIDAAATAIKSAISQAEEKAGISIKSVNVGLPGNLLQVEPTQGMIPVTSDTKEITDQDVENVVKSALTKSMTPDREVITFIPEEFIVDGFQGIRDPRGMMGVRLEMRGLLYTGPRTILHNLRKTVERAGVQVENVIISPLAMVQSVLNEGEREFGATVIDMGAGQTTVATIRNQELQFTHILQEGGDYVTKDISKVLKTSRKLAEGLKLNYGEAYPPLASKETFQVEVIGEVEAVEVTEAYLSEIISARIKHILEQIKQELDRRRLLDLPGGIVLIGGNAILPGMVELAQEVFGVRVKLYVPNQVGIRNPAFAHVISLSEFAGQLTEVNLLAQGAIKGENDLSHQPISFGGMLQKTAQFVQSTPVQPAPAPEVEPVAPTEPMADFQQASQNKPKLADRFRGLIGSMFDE

“EzrA of B. subtilis, bacterial two-hybrid fusion (from UniProt O34894) QND” showed a response [1] of 38 rel.U.

“EzrA of Enterococcus faecalis, bacterial two-hybrid fusion (from UniProt Q838R5) QND” gave a response [2] of 25 rel.U.

“EzrA of S. pneumoniae, bacterial two-hybrid fusion R515D” gave a response [3] of 21 rel.U.

“EzrA of S. suis, bacterial two-hybrid fusion R514D” showed a response [4] of 50 rel.U.

B1: cytoplasmic region of EzrA protein of S. suis (domain or fragment, Streptococcus suis, UniProt A4VWI6 27-574, looked up)
chain: RKRNDNLLVALEERKEELFNLPVNEEVETVKALHLIGQSQVSFREWNQKWVDLSLNSFADIENHIFEAEGYNNAFRFVSAKNAIDSIDSQIDLIEEDIASIRQGLMELKEQEEKNSGRVKHALNLFDSLQEAVRENPDSYGETLSELEKQLKNIEVEFSEFVMLNSSGDPIEASEILDKTEEHMIALNQIMDRIPSLIERVTKDFPEQLEDLESGYRKLVEQNYLFTEANIESQFQNIRVSIRENTALIVSFDLDAAEAENEGIQAKIDHLYKVFNREIEANKEAVKISKNLPKFLEHVVQNTQLLDEESQRLNATYLLADSKLSRINQLKARLESIEIVVTESVEDIENPQVAYSILEERLDHSLASLKEIEEEQLVLADYLKSQELSENTARKKATLYINKLHTLKRYMEKRNLPGIPAEFLTNFFRTSDHVEALIAELDYKRINIEVVNRLLENATYDMNQLEELAYLIVQNATLTEQLLQYSNRYRSFDESVQKAFNRSLSIFEKDFDYQAAFEEISFALETVEPGVTERFVRSYEKTREAIRY
notes: EzrA of Streptococcus suis, locus SSU05_1509, cytoplasmic region; also called EzrA_(cyto); source: E. coli BL21 (DE3), pET28a, purified (Ni-NTA, SUMO protease cleavage); not shown: His-SUMO, C-terminal, cleaved
With B1 the Kd (his-tagged FtsA protein [5]) was 1.91 nM, the “fold binding affinity against EzrA^R514D” value (his-tagged FtsA protein [6]) was at least 10 fold and the Kd (his-tagged FtsA protein [7]) was 37.2 nM.
